This note sets out measurements from paper PMC6202052, “The ectodomains determine ligand function in vivo and selectivity of DLL1 and DLL4 toward NOTCH1 and NOTCH2 in vitro” (eLife, 2018).

The target of experiment [1] is T1, biotinylated human N1 ectodomain fragment containing EGF repeats 6–15 (human, UniProt P46531 216-604, biotin on the Avi tag (BirA co-expression)).
T1 construct: human NOTCH1, EGF repeats 6–15 (amino acids 216–604); also called hN1; N1 fragment; source: Expi293F, transiently transfected (co-transfected with BirA and POFUT1), purified from the medium (Ni-NTA, Superdex 200); not shown: Avi (biotinylation) tag, C-terminal, kept
Nature of the experiment: BLI; BLItz instrument; biotinylated Notch1 fragment loaded on streptavidin biosensors, dipped into ligand samples of varying concentration until equilibrium; HBS-P buffer with 0.005% surfactant P20 and 5 mM CaCl2; equilibrium curves fitted with a one site specific binding model. The settings on record: both partners purified. For orientation: BLI is a label-free optical method that tracks binding on a fibre tip over time.

The target of another experiment is T2, N2(1–15)-Fc (human, UniProt Q04721 26-605).
T2 construct: human NOTCH2, printed as N2(1–15); no catalogue number is printed; Captured on protein A sensor tips by its Fc; also called human N2; human NOTCH2; source: bought: R and D systems, used without further purification
T2 sequence (looked up): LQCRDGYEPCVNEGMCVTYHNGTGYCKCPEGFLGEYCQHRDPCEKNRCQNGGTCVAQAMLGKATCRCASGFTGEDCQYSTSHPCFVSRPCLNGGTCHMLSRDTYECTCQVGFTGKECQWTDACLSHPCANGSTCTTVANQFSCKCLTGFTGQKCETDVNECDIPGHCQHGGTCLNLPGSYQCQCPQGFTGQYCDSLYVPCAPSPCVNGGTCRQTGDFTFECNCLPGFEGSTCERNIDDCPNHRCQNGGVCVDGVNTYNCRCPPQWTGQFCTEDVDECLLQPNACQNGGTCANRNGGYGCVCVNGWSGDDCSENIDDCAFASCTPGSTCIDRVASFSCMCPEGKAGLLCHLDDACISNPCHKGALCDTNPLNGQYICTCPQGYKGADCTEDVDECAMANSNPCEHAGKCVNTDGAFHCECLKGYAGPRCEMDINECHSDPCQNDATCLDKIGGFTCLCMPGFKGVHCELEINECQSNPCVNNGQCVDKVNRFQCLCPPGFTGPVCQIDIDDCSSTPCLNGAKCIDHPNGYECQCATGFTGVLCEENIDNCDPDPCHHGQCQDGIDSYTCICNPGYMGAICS
Nature of the experiment: BLI; BLItz instrument; N2(1–15)-Fc captured on protein A biosensors, ligand samples of varying concentration; HBS-P buffer with 0.005% surfactant P20 and 5 mM CaCl2; equilibrium curves fitted with a one site specific binding model. The following applies: both partners purified.

B1: mD4N-E5 (mouse DLL4 from the N-terminus up to and including EGF5) (domain or fragment, UniProt Q9JI71 27-401, looked up)
chain: GSGIFQLRLQEFVNQRGMLANGQSCEPGCRTFFRICLKHFQATFSEGPCTFGNVSTPVLGTNSFVVRDKNSGSGRNPLQLPFNFTWPGTFSLNIQAWHTPGDDLRPETSPGNSLISQIIIQGSLAVGKIWRTDEQNDTLTRLSYSYRVICSDNYYGESCSRLCKKRDDHFGHYECQPDGSLSCLPGWTGKYCDQPICLSGCHEQNGYCSKPDECICRPGWQGRLCNECIPHNGCRHGTCSIPWQCACDEGWGGLFCDQDLNYCTHHSPCKNGSTCSNSGPKGYTCTCLPGYTGEHCELGLSKCASNPCRNGGSCKDQENSYHCLCPPGYYGQHCEHSTLTCADSPCFNGGSCRERNQGSSYACECPPNFTGSNCE
notes: mouse DLL4, N-terminus up to and including EGF5; also called DLL4 (from the N-terminus through EGF-repeat 5); pLexM-D4N-E5-Avi-His; source: Expi293F, transiently transfected, purified from the medium (Ni-NTA, Superdex 200)
For orientation: Kd means the equilibrium constant for the complex coming apart. Read a high Kd as weaker binding. On to B1, for which, in experiment [1], the Kd turned out to be 430 nM.

B2: mDLL1 fragment (mouse DLL1 from the N-terminus up to and including EGF5) (domain or fragment)
chain: not shown
notes: mouse DLL1, N-terminus up to and including EGF5; also called DLL1 (from the N-terminus through EGF-repeat 5); D1N-E5; source: Expi293F, transiently transfected, purified from the medium (Ni-NTA, Superdex 200)
In experiment [1], B2 showed a Kd of 1560 nM.

B3: hD1N-E5 (human DLL1 from the N-terminus through EGF-repeat 5) (domain or fragment, UniProt O00548 18-402, looked up)
chain: QVWSSGVFELKLQEFVNKKGLLGNRNCCRGGAGPPPCACRTFFRVCLKHYQASVSPEPPCTYGSAVTPVLGVDSFSLPDGGGADSAFSNPIRFPFGFTWPGTFSLIIEALHTDSPDDLATENPERLISRLATQRHLTVGEEWSQDLHSSGRTDLKYSYRFVCDEHYYGEGCSVFCRPRDDAFGHFTCGERGEKVCNPGWKGPYCTEPICLPGCDEQHGFCDKPGECKCRVGWQGRYCDECIRYPGCLHGTCQQPWQCNCQEGWGGLFCNQDLNYCTHHKPCKNGATCTNTGQGSYTCSCRPGYTGATCELGIDECDPSPCKNGGSCTDLENSYSCTCPPGFYGKICELSAMTCADGPCFNGGRCSDSPDGGYSCRCPVGYSGFNC
notes: human DLL1, N-terminus through EGF5; source: Expi293F, transiently transfected, purified from the medium (Ni-NTA, Superdex 200)
In the experiment with N2(1–15)-Fc, B3 yielded a Kd of 360 nM.

B4: D4N-E5 (DLL4 from the N-terminus through EGF-repeat 5) as used in the N2 binding experiment (domain or fragment, UniProt Q9NR61 27-400, looked up)
chain: SGVFQLQLQEFINERGVLASGRPCEPGCRTFFRVCLKHFQAVVSPGPCTFGTVSTPVLGTNSFAVRDDSSGGGRNPLQLPFNFTWPGTFSLIIEAWHAPGDDLRPEALPPDALISKIAIQGSLAVGQNWLLDEQTSTLTRLRYSYRVICSDNYYGDNCSRLCKKRNDHFGHYVCQPDGNLSCLPGWTGEYCQQPICLSGCHEQNGYCSKPAECLCRPGWQGRLCNECIPHNGCRHGTCSTPWQCTCDEGWGGLFCDQDLNYCTHHSPCKNGATCSNSGQRSYTCTCRPGYTGVDCELELSECDSNPCRNGGSCKDQEDGYHCLCPPGYYGLHCEHSTLSCADSPCFNGGSCRERNQGANYACECPPNFTGSNCE
notes: DLL4, N-terminus through EGF5; it may be the mouse fragment m2); The sentence names hD1N-E5 as human but prints D4N-E5 without a species prefix; source: Expi293F, transiently transfected, purified from the medium (Ni-NTA, Superdex 200)
B4: binding in the experiment with N2(1–15)-Fc was characterised by a dissociation constant (Kd) of 1280 nM.
